Target: the molecule itself
Assay: static light scattering + AUC; Dpy30FL and Dpy30C in solution

B1: Dpy30 C-terminal domain (domain or fragment)
chain: not shown
**Q.** For B1, which “stoichiometry N” value is on record?
**A.** 2
